The experiment addresses M. tuberculosis ClpX (M. tuberculosis) (UniProt P9WPB9). The experiment is described as follows: SPR. (In general: SPR reads the build-up and loss of mass on a sensor chip optically.)

What is called Kd is the free concentration of one partner at which half of the binding sites on the other are occupied at equilibrium, for simple one-to-one binding.

“σ^D/RsdA complex (from UniProt P9WGG8;H8EZ77)” registered an equilibrium dissociation constant (Kd) of 14.5 nM.

For the substance “σ^K/RskA complex (from UniProt A5TZH1;A5TZH0)”, the Kd is 164 nM.

In turn, “σ^L/RslA complex (from UniProt H8EXN1;H8EXN2)” returned a fold reduction in binding against σ^D/RsdA of 10 fold.

For the substance σ^M/RsmA complex, the Kd was determined as 133 nM.

These data come from paper doi:10.1101/491043.
